{"source": "the supplement of paper PMC10065799", "about": "“High-throughput profiling of sequence recognition by tyrosine kinases and SH2 domains using bacterial peptide display” (eLife, 2023);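 also: 11-residue human phosphosite peptides and single-mutation variants displayed on the E. coli surface, counted by deep sequencing, each peptide's frequency after selection divided by its frequency in the unselected input library; frequency after pTyr selection over input frequency; kinase dosed for 20-30% of maximal phosphorylation in three min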", "data": [{"biological_target": "EPHB2 (UniProt P29323)", "sequence (P29323 whole entry, looked up)": "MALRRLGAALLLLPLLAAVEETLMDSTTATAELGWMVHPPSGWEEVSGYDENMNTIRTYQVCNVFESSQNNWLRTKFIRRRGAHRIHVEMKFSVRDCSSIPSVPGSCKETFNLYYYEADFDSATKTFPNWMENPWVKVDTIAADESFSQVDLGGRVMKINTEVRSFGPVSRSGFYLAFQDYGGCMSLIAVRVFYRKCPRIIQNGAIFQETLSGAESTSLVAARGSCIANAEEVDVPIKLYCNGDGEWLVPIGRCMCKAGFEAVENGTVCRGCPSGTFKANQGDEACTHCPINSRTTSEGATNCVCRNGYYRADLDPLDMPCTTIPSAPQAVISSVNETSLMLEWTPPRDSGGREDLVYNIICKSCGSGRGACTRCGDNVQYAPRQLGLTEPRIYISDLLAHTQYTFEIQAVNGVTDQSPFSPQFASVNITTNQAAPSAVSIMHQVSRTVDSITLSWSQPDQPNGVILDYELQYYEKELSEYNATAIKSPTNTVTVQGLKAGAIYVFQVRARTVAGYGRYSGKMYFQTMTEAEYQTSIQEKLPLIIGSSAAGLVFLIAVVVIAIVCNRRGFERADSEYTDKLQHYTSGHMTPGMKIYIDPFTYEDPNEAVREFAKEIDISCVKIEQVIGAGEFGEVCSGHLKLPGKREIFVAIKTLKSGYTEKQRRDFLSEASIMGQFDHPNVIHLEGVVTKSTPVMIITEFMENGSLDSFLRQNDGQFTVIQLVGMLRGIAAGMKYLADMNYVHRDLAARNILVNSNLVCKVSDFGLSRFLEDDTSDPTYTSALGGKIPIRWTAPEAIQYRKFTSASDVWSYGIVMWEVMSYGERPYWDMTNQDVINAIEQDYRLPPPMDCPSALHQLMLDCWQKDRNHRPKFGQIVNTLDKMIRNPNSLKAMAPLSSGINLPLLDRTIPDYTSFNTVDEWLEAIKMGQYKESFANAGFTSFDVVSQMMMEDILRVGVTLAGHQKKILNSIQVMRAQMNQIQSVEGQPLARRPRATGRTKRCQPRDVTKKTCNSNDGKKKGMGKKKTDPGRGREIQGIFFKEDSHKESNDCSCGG", "assay": "phosphorylation enrichment, bacterial display (enrichment ratio); higher = better substrate or ligand; peptides without Tyr show the background", "values": [{"sequence": "VECHLYFTQPK [AKR1D1_Y199_P198L]", "phosphorylation enrichment": 0.663}, {"sequence": "AAPAAYDAADT [GAMT_Y27]", "phosphorylation enrichment": 0.5}, {"sequence": "VVCKNYAEAKD [ALB_Y343_D338V]", "phosphorylation enrichment": 0.581}, {"sequence": "KRTFEYEADKN [DENND2B_Y396]", "phosphorylation enrichment": 0.526}, {"sequence": "CRWKRYQRSHD [GDPD5_Y30]", "phosphorylation enrichment": 0.516}, {"sequence": "FNNFGYGSDGF [HNRNPH3_Y161_N163S_YF]", "phosphorylation enrichment": 0.592}, {"sequence": "WFKKFYDANCD [MAPRE2_Y158_Y162C]", "phosphorylation enrichment": 0.426}, {"sequence": "LIGWRYDDPEV [HSPA9_Y128_R126W]", "phosphorylation enrichment": 0.859}, {"sequence": "KITVIYDGACQ [VWDE_Y1035]", "phosphorylation enrichment": 0.664}, {"sequence": "CQNRFYDAKVR [FKBP6_Y188_R183C]", "phosphorylation enrichment": 0.485}, {"sequence": "ATVQNYLPKCI [A2M_Y817_L815Q]", "phosphorylation enrichment": 0.482}, {"sequence": "RHPEVYHHLGV [NVL_Y290]", "phosphorylation enrichment": 0.419}, {"sequence": "LQRCKNSHMEP [TEX45_Y434_Y434N]", "phosphorylation enrichment": 0.848}, {"sequence": "GKVFVYHGSSL [ITGA7_Y458_I457V]", "phosphorylation enrichment": 0.523}, {"sequence": "KQCSDYARELE [MYH3_Y1140_R1137C]", "phosphorylation enrichment": 0.605}, {"sequence": "LDLSYYTTSSS [EMD_Y182_P183T]", "phosphorylation enrichment": 0.863}, {"sequence": "RFLRGYHQDAF [HLA-A_Y137_R138H_YF]", "phosphorylation enrichment": 0.622}, {"sequence": "HDKEYYSVHNK [MET_Y1235_Y1230H]", "phosphorylation enrichment": 0.472}, {"sequence": "ENSLDYGSAWA [AR_Y395_P392S]", "phosphorylation enrichment": 0.677}, {"sequence": "FFTEEYVRDHP [DOCK2_Y1555]", "phosphorylation enrichment": 0.461}, {"sequence": "DCAAIYGSEPE [AKR1A1_Y50_N52S]", "phosphorylation enrichment": 0.578}, {"sequence": "VGAKTYKMSMA [CPS1_Y309_A304V]", "phosphorylation enrichment": 0.326}, {"sequence": "AKFLGYPPPEI [KDR_Y357_YF]", "phosphorylation enrichment": 0.413}, {"sequence": "TEHMAYCPIQC [SHC4_Y403_Q400H]", "phosphorylation enrichment": 0.524}, {"sequence": "NLSVHYDSSLK [ABCC8_Y1353_R1352H]", "phosphorylation enrichment": 0.82}, {"sequence": "GGEEFYVHYVG [KAT8_Y90_R86G]", "phosphorylation enrichment": 0.532}, {"sequence": "QKKEEYKMALF [F8_Y1990_R1985Q_YF]", "phosphorylation enrichment": 0.48}, {"sequence": "GKLIFHDLRGE [KARS1_Y145_Y145H]", "phosphorylation enrichment": 0.405}, {"sequence": "HDRGNYVRLNM [RECQL4_Y353]", "phosphorylation enrichment": 1.35}, {"sequence": "RHPLEYLRQFP [NARS2_Y138_YF]", "phosphorylation enrichment": 0.494}, {"sequence": "RCQDLYSARDL [SART1_Y249_R245C]", "phosphorylation enrichment": 1.06}, {"sequence": "IEEGTYGVAFR [CDK11B_Y449_V452A_YF]", "phosphorylation enrichment": 2.24}, {"sequence": "SEKVVYQRFTE [NCF1_Y41_R42Q]", "phosphorylation enrichment": 0.394}]}, {"biological_target": "FGFR1 (UniProt P11362)", "sequence (P11362 whole entry, looked up)": "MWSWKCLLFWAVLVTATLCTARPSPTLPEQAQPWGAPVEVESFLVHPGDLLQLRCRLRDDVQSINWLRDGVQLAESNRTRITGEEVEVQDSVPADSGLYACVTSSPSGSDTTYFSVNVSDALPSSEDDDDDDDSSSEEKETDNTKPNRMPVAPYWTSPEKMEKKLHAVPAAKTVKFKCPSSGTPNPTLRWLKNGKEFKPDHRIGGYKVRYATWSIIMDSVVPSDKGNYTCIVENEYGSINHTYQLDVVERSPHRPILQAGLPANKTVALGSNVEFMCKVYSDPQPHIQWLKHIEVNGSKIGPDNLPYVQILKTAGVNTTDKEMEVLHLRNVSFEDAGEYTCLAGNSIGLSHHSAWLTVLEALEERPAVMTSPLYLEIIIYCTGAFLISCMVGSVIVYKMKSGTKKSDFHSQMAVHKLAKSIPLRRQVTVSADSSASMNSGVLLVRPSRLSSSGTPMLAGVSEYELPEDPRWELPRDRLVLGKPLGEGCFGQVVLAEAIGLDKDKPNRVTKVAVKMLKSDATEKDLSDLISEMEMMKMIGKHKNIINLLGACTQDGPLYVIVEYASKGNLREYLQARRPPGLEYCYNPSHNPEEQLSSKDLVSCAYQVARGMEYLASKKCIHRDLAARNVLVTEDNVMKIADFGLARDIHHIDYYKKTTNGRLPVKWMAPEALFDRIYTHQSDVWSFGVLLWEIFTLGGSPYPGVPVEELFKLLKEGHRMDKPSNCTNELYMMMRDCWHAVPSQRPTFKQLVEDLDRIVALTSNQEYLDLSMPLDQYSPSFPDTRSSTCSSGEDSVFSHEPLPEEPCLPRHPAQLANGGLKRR", "assay": "phosphorylation enrichment, bacterial display (enrichment ratio); higher = better substrate or ligand; peptides without Tyr show the background", "values": [{"sequence": "VECHLYFTQPK [AKR1D1_Y199_P198L]", "phosphorylation enrichment": 0.493}, {"sequence": "AAPAAYDAADT [GAMT_Y27]", "phosphorylation enrichment": 0.529}, {"sequence": "VVCKNYAEAKD [ALB_Y343_D338V]", "phosphorylation enrichment": 0.482}, {"sequence": "KRTFEYEADKN [DENND2B_Y396]", "phosphorylation enrichment": 0.507}, {"sequence": "CRWKRYQRSHD [GDPD5_Y30]", "phosphorylation enrichment": 0.481}, {"sequence": "FNNFGYGSDGF [HNRNPH3_Y161_N163S_YF]", "phosphorylation enrichment": 0.499}, {"sequence": "WFKKFYDANCD [MAPRE2_Y158_Y162C]", "phosphorylation enrichment": 0.472}, {"sequence": "LIGWRYDDPEV [HSPA9_Y128_R126W]", "phosphorylation enrichment": 0.419}, {"sequence": "KITVIYDGACQ [VWDE_Y1035]", "phosphorylation enrichment": 0.438}, {"sequence": "CQNRFYDAKVR [FKBP6_Y188_R183C]", "phosphorylation enrichment": 0.495}, {"sequence": "ATVQNYLPKCI [A2M_Y817_L815Q]", "phosphorylation enrichment": 0.462}, {"sequence": "RHPEVYHHLGV [NVL_Y290]", "phosphorylation enrichment": 1.08}, {"sequence": "LQRCKNSHMEP [TEX45_Y434_Y434N]", "phosphorylation enrichment": 0.958}, {"sequence": "GKVFVYHGSSL [ITGA7_Y458_I457V]", "phosphorylation enrichment": 0.514}, {"sequence": "KQCSDYARELE [MYH3_Y1140_R1137C]", "phosphorylation enrichment": 0.654}, {"sequence": "LDLSYYTTSSS [EMD_Y182_P183T]", "phosphorylation enrichment": 1.07}, {"sequence": "RFLRGYHQDAF [HLA-A_Y137_R138H_YF]", "phosphorylation enrichment": 0.578}, {"sequence": "HDKEYYSVHNK [MET_Y1235_Y1230H]", "phosphorylation enrichment": 2.8}, {"sequence": "ENSLDYGSAWA [AR_Y395_P392S]", "phosphorylation enrichment": 0.467}, {"sequence": "FFTEEYVRDHP [DOCK2_Y1555]", "phosphorylation enrichment": 0.481}, {"sequence": "DCAAIYGSEPE [AKR1A1_Y50_N52S]", "phosphorylation enrichment": 0.453}, {"sequence": "VGAKTYKMSMA [CPS1_Y309_A304V]", "phosphorylation enrichment": 0.367}, {"sequence": "AKFLGYPPPEI [KDR_Y357_YF]", "phosphorylation enrichment": 0.499}, {"sequence": "TEHMAYCPIQC [SHC4_Y403_Q400H]", "phosphorylation enrichment": 0.458}, {"sequence": "NLSVHYDSSLK [ABCC8_Y1353_R1352H]", "phosphorylation enrichment": 0.522}, {"sequence": "GGEEFYVHYVG [KAT8_Y90_R86G]", "phosphorylation enrichment": 0.681}, {"sequence": "QKKEEYKMALF [F8_Y1990_R1985Q_YF]", "phosphorylation enrichment": 0.716}, {"sequence": "GKLIFHDLRGE [KARS1_Y145_Y145H]", "phosphorylation enrichment": 0.37}, {"sequence": "HDRGNYVRLNM [RECQL4_Y353]", "phosphorylation enrichment": 0.711}, {"sequence": "RHPLEYLRQFP [NARS2_Y138_YF]", "phosphorylation enrichment": 0.369}, {"sequence": "RCQDLYSARDL [SART1_Y249_R245C]", "phosphorylation enrichment": 0.876}, {"sequence": "IEEGTYGVAFR [CDK11B_Y449_V452A_YF]", "phosphorylation enrichment": 0.465}, {"sequence": "SEKVVYQRFTE [NCF1_Y41_R42Q]", "phosphorylation enrichment": 0.574}]}]}
